± gives the uncertainty stated by the source.

This series in a line: amyloid nucleation score (Sup35N fusion, yeast selection) (log enrichment); library NNK1; higher = more nucleation; inactive = no reads after selection. The gist of the method: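 Nucleation score: DiMSum log enrichment of output over input reads, centred on the mode score of non-aggregating sequences. Only sequences with at least 100 input reads were kept. Reads came from Illumina sequencing of plasmid inserts before and after 7 days of growth at 30°C without adenine and uracil, in psi-negative yeast expressing Sup35N fused to peptides of 20 random codons after 24 hours of induction with 100 μM copper sulfate.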

Turning to LPGTSRRASRCLFACYVDMS, the amyloid nucleation score worked out at 0.676 ± 0.39.
With MDWLEYHMSFCSHV, the amyloid nucleation score is 0.07 ± 0.26.
For the substance MLVDIGRC, the amyloid nucleation score was -1.31 ± 1.6.
In turn, VSSGHLA came in with an amyloid nucleation score of 0.032 ± 0.42.
EVSLVVYTYVF showed an amyloid nucleation score of 0.697 ± 0.69.
For the substance FGMSRW, the amyloid nucleation score came to 0.166 ± 0.78.
With LMESVAVFPNSRLPILTEC the figure was -0.011 ± 0.56; with SYFKCMIILSRMLLVVLEI, -0.272 ± 0.65.
Turning to VKPLLIHIRALLEM, the amyloid nucleation score was 1.55 ± 0.52.
Substance AGVCYWTLDILPY came in with an amyloid nucleation score of 0.789 ± 0.9.
To GVALFVIGLNSQIVANSYTS belongs 6.285 ± 0.055; to HGLKWGFQLTNLSMLVTSCM, -0.475 ± 1.1; to RERSYRSGDYRCYSIMWSAL, -0.382 ± 0.23.
Substance LHSSMNCRWIHTL returned an amyloid nucleation score of 0.618 ± 0.47.
As to NFYTFFQTRGFLSLSACALR, the amyloid nucleation score is -1.12 ± 2.7.
Turning to REANNPCRVNTKSIVVRLEV, the amyloid nucleation score is -0.787 ± 0.32.
TRHFLSIVLLEL yielded an amyloid nucleation score of 1.78 ± 0.28.
Take KTASLRRVG: the amyloid nucleation score was -0.071 ± 0.32.
For GVDGFWRMVSKLPHGRLDQH, the amyloid nucleation score is -0.123 ± 0.38.
As for RLRPTTAASSLCSVLVPR, the amyloid nucleation score was -0.097 ± 1.1.
With VPFLYVG the figure was -0.792 ± 0.62.
Turning to VITVSGSEGEIEWSS, the amyloid nucleation score is -1.64 ± 2.7.
With NYAQVLRTSFTNGVLTLKEE, the amyloid nucleation score is -0.526 ± 0.86.
With PKCLNESMVGRRWLAIMGRV, the amyloid nucleation score was found to be 0.328 ± 0.72.
In the case of YLLQSAIFGAGVHT, the amyloid nucleation score came out at 0.672 ± 0.39.
Turning to RSVSRRGYVGAFPSQVWLGL, the amyloid nucleation score was 0.214 ± 0.77.
In the case of LHVEWSASMSMFCLNHRIAA, the amyloid nucleation score is -0.172 ± 0.61.
For the substance FYVSLRWV, the amyloid nucleation score was determined as 0.105 ± 0.45.
To LRLENAQLSFTFEYWILYG belongs -0.475 ± 1.7.
With WYVLCYGPRFFYMSRLS the figure was -0.411 ± 0.3; with ALHCQPVGH, -0.006 ± 0.32; with PRPQLPVKYLYSRLIGETCG, 3.25 ± 0.071.
With SRCYMDSIV, the amyloid nucleation score was 0.101 ± 0.36.
Consider ISEKRISMCGIRNKYIWGHG, for which the amyloid nucleation score was -0.953 ± 1.1.
In turn, IMEGR registered an amyloid nucleation score of 5.73 ± 0.1.
For LFNILASFSYFAFYYLLLLS, the amyloid nucleation score is -0.492 ± 0.8.
Regarding WHSIADLNLVDYEICVNFFY, the amyloid nucleation score was -0.75 ± 1.5.
With LVWSGLHVGGHSWVGFTGVV, the amyloid nucleation score is 0.241 ± 0.61.
With LYMPSGNIFG the figure was 0.973 ± 0.8; with IHKDFSLMHILRIHLVGVFS, “inactive”; with AGFVSVVVF, 0.005 ± 0.38.
With WFSRTPWYFVFRCNDDMDCS the entry was “inactive”; with EFEWNLFPICNTNMI, 1.66 ± 0.8.
For the substance LNATGSLPYDIMECTKELWP, the amyloid nucleation score is -0.343 ± 0.7.
As to SLFLAGIMDIRGWYVVASTP, the amyloid nucleation score is -0.34 ± 0.54.
In turn, TTLVQCQFIPTFCVIPMWLL yielded an amyloid nucleation score of 5.58 ± 0.058.
Take SGYMWMFMSHRNEFRTEVRW: the amyloid nucleation score turned out to be 0.385 ± 0.37.
For KCLIYGKFIVRCVPINV, the amyloid nucleation score is -0.088 ± 0.59.
With KDALDHHLIMLRGYVVLQS the figure was -0.891 ± 0.59; with WRQYIDRNYVSCSASMLAWE, 0.583 ± 0.43.
Substance QRRHMCCVNAFFRDMRKGIG registered an amyloid nucleation score of 1.63 ± 0.43.
For the substance EQNCVGVCSELNVFYGACVI, the amyloid nucleation score was determined as 2.12 ± 0.48.
To ALRNCQNMRPYKTPVRPTVA belongs 1.34 ± 0.71; to SMWVWMHICEAMG, 4.6 ± 0.11; to TNDTAPVWHTDLMTDWR, -0.079 ± 0.57.
SGNTGPFRCARAADNSNFKG: the amyloid nucleation score was -0.922 ± 0.67.
With KYDRCYYSRMNPSCVYIPYS, the amyloid nucleation score turned out to be 2.47 ± 0.4.
As to LYAKLQLLRNKYRVYLFVTS, the amyloid nucleation score was -0.741 ± 0.55.
To CLVERATITHFASCVEAYFY belongs -0.224 ± 1.4.
With PSHFHHQ the figure was 0.305 ± 0.32.
Take TFFVVCKSTLILYEI: the amyloid nucleation score was -0.186 ± 0.52.
As for LATGHVFYGFG, the amyloid nucleation score is -0.116 ± 0.36.
As for VYLACVSSPCLKS, the amyloid nucleation score is -0.2 ± 0.79.
Substance SCVAVSNNMILPRVSGLFEG returned an amyloid nucleation score of 2.55 ± 0.15.
To ICQYPPLEVLARYGQIQDIM belongs 0.207 ± 0.3; to HSCSVPLWIWRFSVRAKGCK, 0.562 ± 0.57.
Turning to GQHMASNLERMV, the amyloid nucleation score was 3.34 ± 0.085.
On to GIFSNLEVGYKPKN, for which the amyloid nucleation score is -0.694 ± 0.39.
To RNVCIIVVSEW belongs 6.589 ± 0.056; to ITMNVRSSYGLSVIMIELGL, 1.02 ± 0.76.
The substance PMVIYNFEFNFGVSSDRIYA came in with an amyloid nucleation score of 4.35 ± 0.15.
For VRLIRTPSDIGTYIIGCREG, the amyloid nucleation score was -0.065 ± 0.38.
Consider AKLWQY, for which the amyloid nucleation score is -0.185 ± 1.1.
WKVVCNVPVVWFFLKRLHLL displayed an amyloid nucleation score of 0.498 ± 0.38.
Regarding SLHSDVRHRRVVYVVREIAY, the amyloid nucleation score was -0.096 ± 1.1.
To TSDNFCQCHCSFFQSWFGG belongs -0.27 ± 0.63.
For the substance SNLHNCLRGNGCWVIAIDVV, the amyloid nucleation score was -0.251 ± 0.81.
To YWEGWGKTRFKCNGSRSRAG belongs -1.01 ± 1.3; to AGKCGIQWACEM, 0.194 ± 0.69; to IAPMSRRFEGMACSFTDEEA, “inactive”.
Turning to QKSYMCRVGYPF, the amyloid nucleation score is 0.501 ± 0.72.
On to PIFLGLFDDRYMG, for which the amyloid nucleation score came out at 0.116 ± 0.45.
For MVRGQVNPNSFNARWY, the amyloid nucleation score result is “inactive”.
As for MWYVHHCQGSVTLLARGRLC, the amyloid nucleation score turned out to be 0.886 ± 1.
Regarding CSGTICLIIRKLAVILTSQR, the amyloid nucleation score result is “inactive”.
To IIEWFSWWARMIFDDFPYYE belongs “inactive”; to VRQNNGQMFFYWSWFIGNNP, 8.12 ± 0.063.
To TESVRKWFKLRLWESWYNSN belongs 0.145 ± 0.51; to VLCVFCGNLHMIVLDCAFDA, 8.589 ± 0.051; to LSGFKMFIGNYITVV, -0.779 ± 0.78.
With VNYPEDPTSKEIIRHSLGTG the figure was -1.13 ± 2.4.
As for RADIKAIMLNYMIFA, the amyloid nucleation score entry is “inactive”.
As for SSKLSYWYKMAIESSFNVLH, the amyloid nucleation score was -0.083 ± 0.41.
Consider WCNTMFWHS, for which the amyloid nucleation score turned out to be 1.09 ± 0.22.
For the substance ALCFGR, the amyloid nucleation score entry was “inactive”.
On to EGRTWRGSRRGLHLDSPRMC, for which the amyloid nucleation score came out at 0.438 ± 0.95.
With SLDCWLMGGRTANLVRRLGR the figure was -0.39 ± 0.95; with PLLEATNCDLHGLVRLLMRF, 0.651 ± 0.72; with LNEHLFR, 0.615 ± 0.87.
Turning to DWGKSSPLLKVLLMQSRLPC, the amyloid nucleation score was -0.073 ± 0.45.
Turning to SFGTQPGQISVN, the amyloid nucleation score is -0.856 ± 2.4.
In the case of QYHYNGGLPRQFK, the amyloid nucleation score is -0.534 ± 0.54.
Substance SVCKCKLNERIEKWNYRSIR registered an amyloid nucleation score of 0.227 ± 0.43.
With VLTNESRGYTIRLGSYSRFV the figure was 2.4 ± 0.49; with HTYDGHSVSGCTGHVMFLSS, -0.021 ± 0.41.
MAFMLWLDYW came in with an amyloid nucleation score of 0.395 ± 0.32.
In the case of WFPCVADINICPLGLYHSEG, the amyloid nucleation score was 8.033 ± 0.062.
With CTDSEAKGCDFFGRISVNVY the figure was 0.689 ± 0.73.
Take KSAEIKEQCTTWFMYTMLGA: the amyloid nucleation score was -0.785 ± 0.44.
As to KQECQYCWSG, the amyloid nucleation score was -1.15 ± 0.36.
To YLNSFLYVMLFLVPDRSVTR belongs 6.18 ± 0.068; to VRSFDDLRVNVSRSRCAMAQ, -0.906 ± 0.71.
Regarding TVWYITTLAGEFAA, the amyloid nucleation score is 1.09 ± 0.53.
NLSGDDFGVNEKTSRWCQWG returned an amyloid nucleation score of 0.397 ± 1.2.
Turning to YWFFSIMSSYSVNTQM, the amyloid nucleation score was found to be 1.64 ± 0.8.
Take GNKDDTV: the amyloid nucleation score is -1.6 ± 1.1.
The substance EKFGRRCCSFGRSVSEWVTK yielded an amyloid nucleation score of 0.999 ± 0.66.
QMCLFKVNLVVTISI: the amyloid nucleation score result was “inactive”.
Take LVTGSCNQWHGKW: the amyloid nucleation score is -0.062 ± 0.39.
With NGPLHSYYTVWGCMYCLLML the figure was 3.06 ± 0.23; with TMVFVCSNYGPSFSLLVC, 2.83 ± 0.24.
For the substance FHALGCK, the amyloid nucleation score is -0.38 ± 0.41.
To TISGNVSCQKYSRLCVQGLS belongs 0.449 ± 0.25.
With YLNTLRR the entry was “inactive”.
As to NNMRYTV, the amyloid nucleation score entry was “inactive”.
Turning to CRFKYHLRV, the amyloid nucleation score was -1.21 ± 2.4.
For DFRAIS, the amyloid nucleation score came to 0.576 ± 0.79.
For LCKDLAKHHN, the amyloid nucleation score was 4.97 ± 0.056.
To NMLSLSRAAWKRN belongs “inactive”; to QCAYGWFRIIVITRFFCEDS, -0.701 ± 0.37.
On to AYIDKMCTPYNKGRLLMHWY, for which the amyloid nucleation score stood at 1.97 ± 0.48.
Consider IVPPLSNCSFIG, for which the amyloid nucleation score is -0.293 ± 0.6.
In the case of YSTLRGFNYVFLKYIVK, the amyloid nucleation score was 0.724 ± 0.54.
With IVVFQGVCTKMLRTDELIWR the figure was 1.18 ± 0.2; with LRSKCECNTRGSCAWWCSDA, 1.1 ± 0.9; with NITFEVINQRCD, 3.38 ± 0.12.
With ELIIRTRLAVEELLMKACFV the figure was -0.498 ± 0.39.
The substance TLCCVWSNSFLRVTHDVYKA registered an amyloid nucleation score of 8.518 ± 0.057.
With VSMHYYAGTYSLNNSLV the figure was -0.819 ± 1.1; with AFGMIVLGRSTNGGYCTDGN, 2.83 ± 0.16.
In turn, TSWVEAPSVSSFGWFLSVHL had an amyloid nucleation score of 1.91 ± 0.12.

The values above are taken from the supplement of paper PMC12042874.
